Experimental data as given in patent US20050069921, “Compositions, kits, and methods for stimulation of homologous recombination” (published 2005).

Assays:
I-SceI = assay: cell_activity; settings: homologous recombination; about 2.5-fold fewer broken ends than wild-type core RAG
[1] = target: T1, RAG-1/RAG-2 core, wild type (Mus musculus, UniProt P15919;P21784 P15919:330-1040,P21784:1-387); assay: cell_activity; settings: homologous recombination, extrachromosomal; cleavage seen by Southern blot (FIG. 3C)
T1 sequence 1: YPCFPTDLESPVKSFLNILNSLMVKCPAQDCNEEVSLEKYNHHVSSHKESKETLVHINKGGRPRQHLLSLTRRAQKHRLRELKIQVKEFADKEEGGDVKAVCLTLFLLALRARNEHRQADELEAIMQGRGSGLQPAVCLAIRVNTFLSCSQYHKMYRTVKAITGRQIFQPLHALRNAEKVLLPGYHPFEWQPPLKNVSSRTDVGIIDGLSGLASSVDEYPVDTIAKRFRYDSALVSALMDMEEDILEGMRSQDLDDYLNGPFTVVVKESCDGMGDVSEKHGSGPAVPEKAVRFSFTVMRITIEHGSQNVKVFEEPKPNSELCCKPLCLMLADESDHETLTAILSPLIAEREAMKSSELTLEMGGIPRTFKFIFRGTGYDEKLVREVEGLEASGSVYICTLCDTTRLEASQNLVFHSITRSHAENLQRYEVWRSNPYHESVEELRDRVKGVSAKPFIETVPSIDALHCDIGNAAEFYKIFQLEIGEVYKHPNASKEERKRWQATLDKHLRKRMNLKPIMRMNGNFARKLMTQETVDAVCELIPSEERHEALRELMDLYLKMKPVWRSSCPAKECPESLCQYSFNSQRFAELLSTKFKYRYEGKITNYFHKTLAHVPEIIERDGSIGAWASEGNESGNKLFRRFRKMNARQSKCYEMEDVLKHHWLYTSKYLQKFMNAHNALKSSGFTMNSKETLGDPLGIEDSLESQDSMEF
T1 sequence 2: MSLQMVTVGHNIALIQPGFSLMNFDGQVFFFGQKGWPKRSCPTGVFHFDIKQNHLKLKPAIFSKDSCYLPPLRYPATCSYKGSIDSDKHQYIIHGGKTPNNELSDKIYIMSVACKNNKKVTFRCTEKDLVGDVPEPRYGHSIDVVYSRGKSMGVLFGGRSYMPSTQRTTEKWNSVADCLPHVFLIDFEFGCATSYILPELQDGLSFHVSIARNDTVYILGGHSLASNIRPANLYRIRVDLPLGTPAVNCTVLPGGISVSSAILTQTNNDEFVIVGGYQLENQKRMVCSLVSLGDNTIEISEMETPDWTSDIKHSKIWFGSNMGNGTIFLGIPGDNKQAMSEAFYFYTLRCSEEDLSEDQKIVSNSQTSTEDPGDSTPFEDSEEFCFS

[2] = target: T2, RAG-1 R838A/K839A/R840A core/RAG-2 core RAG-1 R838A/K839A/R840A (Mus musculus) (UniProt P15919+P21784); assay: cell_activity; settings: homologous recombination; signal ends 2.5-fold lower than wild type (FIG. 3C)
T2 sequence 1: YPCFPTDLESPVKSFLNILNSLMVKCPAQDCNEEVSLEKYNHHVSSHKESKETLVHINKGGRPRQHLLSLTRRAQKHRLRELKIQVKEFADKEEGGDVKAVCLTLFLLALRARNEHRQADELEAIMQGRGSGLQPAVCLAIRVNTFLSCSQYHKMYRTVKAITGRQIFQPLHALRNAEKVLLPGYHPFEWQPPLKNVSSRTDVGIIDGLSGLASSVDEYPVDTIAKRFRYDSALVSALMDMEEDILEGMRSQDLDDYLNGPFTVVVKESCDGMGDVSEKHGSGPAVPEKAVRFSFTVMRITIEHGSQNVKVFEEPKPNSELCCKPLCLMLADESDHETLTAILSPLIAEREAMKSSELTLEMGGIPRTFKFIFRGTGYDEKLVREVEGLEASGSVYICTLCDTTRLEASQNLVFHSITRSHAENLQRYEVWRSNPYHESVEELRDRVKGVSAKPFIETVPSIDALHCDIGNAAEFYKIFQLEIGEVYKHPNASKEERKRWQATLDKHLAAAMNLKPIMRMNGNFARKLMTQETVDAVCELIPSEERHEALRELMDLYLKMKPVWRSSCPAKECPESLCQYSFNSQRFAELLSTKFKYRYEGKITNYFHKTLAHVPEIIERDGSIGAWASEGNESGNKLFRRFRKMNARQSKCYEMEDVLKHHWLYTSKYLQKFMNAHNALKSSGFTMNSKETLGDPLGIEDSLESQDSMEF
T2 sequence 2: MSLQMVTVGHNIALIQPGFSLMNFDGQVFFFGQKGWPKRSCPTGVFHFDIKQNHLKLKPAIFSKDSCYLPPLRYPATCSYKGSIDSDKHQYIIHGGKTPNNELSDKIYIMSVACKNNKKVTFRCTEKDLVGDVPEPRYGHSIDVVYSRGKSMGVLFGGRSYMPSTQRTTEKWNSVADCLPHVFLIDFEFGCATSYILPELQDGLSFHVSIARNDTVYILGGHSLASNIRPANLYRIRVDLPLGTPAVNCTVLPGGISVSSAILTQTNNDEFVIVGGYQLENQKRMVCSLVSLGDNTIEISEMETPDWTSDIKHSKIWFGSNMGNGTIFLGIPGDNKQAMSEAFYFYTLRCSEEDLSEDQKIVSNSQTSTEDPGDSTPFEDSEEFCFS

RAG-1/RAG-2 full-length = RAG-1/RAG-2 full-length (UniProt P15919;P21784 P15919:1-1040,P21784:1-527); assay: cell_activity; homologous recombination, integrated single 12-RSS substrate; settings: chain copies: 2,2
Procedure: (§1) Relative stimulation is calculated by dividing the percentage of CFP-positive cells of experimental (nuclease-containing) transfections by the percentage of CFP-positive cells present in the DDE RAG mutant expressing transfection (negative control). It is important to maintain constant (DNA) in each transfection because increases in DNA (including non-substrate molecules) nonspecifically stimulate homologous recombination, as recently reported (Hostager et al., 2003). Experiments have been repeated over a dozen times on three different flow cytometers; FIGS. 3, 4, 6, and 7 show data from five experiments on the Becton Dickinson LSRII.
(§2) The next set of experiments took a complementary approach. Instead of using nick-only RAG proteins, a nick-only substrate was used (i.e., a single 12-RSS, which readily undergoes nicking in vitro (Cuomo et al., 1996; Ramsden et al., 1996) but yields very poor DSB formation in vivo (Steen et al., 1997)). […] Even when the nick-only mutants are assayed on the single RSS substrate, they are able to stimulate homologous recombination as efficiently as the full-length or core wild-type RAG proteins (FIG. 7). […]

[3] = target: T1, RAG-1/RAG-2 core, wild type; assay: cell_activity; homologous recombination, integrated single 12-RSS substrate; robust also for full-length RAG; settings: tags: GST-RAG-1 core (pEBG-1DN) and RAG-2 core (pMal-1 vector); chain copies: 2,2
Procedure: as §1, §2

I-SceI site substrate
activity (fold over wild-type core RAG) (I-SceI): 9

SE substrate (pJH289 recombination zone, 12/23 RSS pair)
activity (fold over DDE) [1]: 13 | activity (fold over DDE) [2]: 205

B1: 12-RSS substrate (dsDNA)
DNA 1: CACAGTGCTACAGACTGGAACAAAAACC
DNA 2: GGTTTTTGTTCCAGTCTGTAGCACTGTG
activity (RAG-1/RAG-2 full-length): 15 fold over DDE | activity [3]: 15 fold over DDE
